Paper PMC4157451 (Acta Crystallographica Section D: Biological Crystallography, 2014)

Biological target: the molecule itself
Test: not stated; assembly of the purified point mutants in solution (Supplementary Fig. S3)

Protein | stoichiometry N
PvuRts1I Y210F mutant (enzyme, UniProt Q52612 1-293, looked up, PvuRts1I with a point mutation; also called Y210F variant; source: E. coli Rosetta2 (DE3), purified under identical conditions to wild-type PvuRts1I) MSKTDYILRALSKISHKRWEHYIINRVVHTLDDPDIEFVCQQCIRKEGHLGKIYLADLLFPQLNLYLEIDEAHHDSNDARKADAVRRLDIVEATGFQEERIPASNITLSEVNKLVDEFVRLVKDKKEELENQGLFFRWDYDERYSAKKHINTGYMAVGPNSVFRYHRDALQCFGYRREGHHQSGGWALPAEVAQSIGLTGRVMVWFPRLFEAGEWKNALSADGNKITEQSLNATRNYQETWDYRIVMAHSRDELNRTLYRFLGVFAIDVDKSSDEVKVFSRVYSRVNVYRSQN | 2
PvuRts1I N217D mutant (enzyme, UniProt Q52612 1-293, looked up, PvuRts1I with a point mutation; source: E. coli Rosetta2 (DE3), purified under identical conditions to wild-type PvuRts1I) MSKTDYILRALSKISHKRWEHYIINRVVHTLDDPDIEFVCQQCIRKEGHLGKIYLADLLFPQLNLYLEIDEAHHDSNDARKADAVRRLDIVEATGFQEERIPASNITLSEVNKLVDEFVRLVKDKKEELENQGLFFRWDYDERYSAKKHINTGYMAVGPNSVFRYHRDALQCFGYRREGHHQSGGWALPAEVAQSIGLTGRVMVWFPRLYEAGEWKDALSADGNKITEQSLNATRNYQETWDYRIVMAHSRDELNRTLYRFLGVFAIDVDKSSDEVKVFSRVYSRVNVYRSQN | 2
PvuRts1I N217K mutant (enzyme, UniProt Q52612 1-293, looked up, PvuRts1I with a point mutation; source: E. coli Rosetta2 (DE3), purified under identical conditions to wild-type PvuRts1I) MSKTDYILRALSKISHKRWEHYIINRVVHTLDDPDIEFVCQQCIRKEGHLGKIYLADLLFPQLNLYLEIDEAHHDSNDARKADAVRRLDIVEATGFQEERIPASNITLSEVNKLVDEFVRLVKDKKEELENQGLFFRWDYDERYSAKKHINTGYMAVGPNSVFRYHRDALQCFGYRREGHHQSGGWALPAEVAQSIGLTGRVMVWFPRLYEAGEWKKALSADGNKITEQSLNATRNYQETWDYRIVMAHSRDELNRTLYRFLGVFAIDVDKSSDEVKVFSRVYSRVNVYRSQN | 2
PvuRts1I A212N mutant (enzyme, UniProt Q52612 1-293, looked up, PvuRts1I with a point mutation; source: E. coli Rosetta2 (DE3), purified under identical conditions to wild-type PvuRts1I) MSKTDYILRALSKISHKRWEHYIINRVVHTLDDPDIEFVCQQCIRKEGHLGKIYLADLLFPQLNLYLEIDEAHHDSNDARKADAVRRLDIVEATGFQEERIPASNITLSEVNKLVDEFVRLVKDKKEELENQGLFFRWDYDERYSAKKHINTGYMAVGPNSVFRYHRDALQCFGYRREGHHQSGGWALPAEVAQSIGLTGRVMVWFPRLYENGEWKNALSADGNKITEQSLNATRNYQETWDYRIVMAHSRDELNRTLYRFLGVFAIDVDKSSDEVKVFSRVYSRVNVYRSQN | 2
PvuRts1I E228K mutant (enzyme, UniProt Q52612 1-293, looked up, PvuRts1I with a point mutation; source: E. coli Rosetta2 (DE3), purified under identical conditions to wild-type PvuRts1I) MSKTDYILRALSKISHKRWEHYIINRVVHTLDDPDIEFVCQQCIRKEGHLGKIYLADLLFPQLNLYLEIDEAHHDSNDARKADAVRRLDIVEATGFQEERIPASNITLSEVNKLVDEFVRLVKDKKEELENQGLFFRWDYDERYSAKKHINTGYMAVGPNSVFRYHRDALQCFGYRREGHHQSGGWALPAEVAQSIGLTGRVMVWFPRLYEAGEWKNALSADGNKITKQSLNATRNYQETWDYRIVMAHSRDELNRTLYRFLGVFAIDVDKSSDEVKVFSRVYSRVNVYRSQN | 2
PvuRts1I N217A mutant (enzyme, UniProt Q52612 1-293, looked up, PvuRts1I with a point mutation; source: E. coli Rosetta2 (DE3), purified under identical conditions to wild-type PvuRts1I) MSKTDYILRALSKISHKRWEHYIINRVVHTLDDPDIEFVCQQCIRKEGHLGKIYLADLLFPQLNLYLEIDEAHHDSNDARKADAVRRLDIVEATGFQEERIPASNITLSEVNKLVDEFVRLVKDKKEELENQGLFFRWDYDERYSAKKHINTGYMAVGPNSVFRYHRDALQCFGYRREGHHQSGGWALPAEVAQSIGLTGRVMVWFPRLYEAGEWKAALSADGNKITEQSLNATRNYQETWDYRIVMAHSRDELNRTLYRFLGVFAIDVDKSSDEVKVFSRVYSRVNVYRSQN | 2
PvuRts1I W215A mutant (enzyme, UniProt Q52612 1-293, looked up, PvuRts1I with a point mutation; source: E. coli Rosetta2 (DE3), purified under identical conditions to wild-type PvuRts1I) MSKTDYILRALSKISHKRWEHYIINRVVHTLDDPDIEFVCQQCIRKEGHLGKIYLADLLFPQLNLYLEIDEAHHDSNDARKADAVRRLDIVEATGFQEERIPASNITLSEVNKLVDEFVRLVKDKKEELENQGLFFRWDYDERYSAKKHINTGYMAVGPNSVFRYHRDALQCFGYRREGHHQSGGWALPAEVAQSIGLTGRVMVWFPRLYEAGEAKNALSADGNKITEQSLNATRNYQETWDYRIVMAHSRDELNRTLYRFLGVFAIDVDKSSDEVKVFSRVYSRVNVYRSQN | 2
